Measured values as given in the supplement of paper PMC10724198.
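Wherever protein stability index of tFT-peptide fusion in deletion strain of DOA10 is given: PSI per variant is the weighted mean of its sequencing read distribution over the sorted stability bins, counting only variants with over 10 reads summed across bins.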
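Wherever protein stability index of tFT-peptide fusion in wild type is given: PSI derived as read-weighted mean over the 8 sorting bins, only variants exceeding 10 total reads kept, mCherry placed adjacent to the peptide and sfGFP distal.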

What follows are sequences tested on Saccharomyces cerevisiae (assay: protein stability index of tFT-peptide fusion in wild type (PSI (0-1 scale)); higher = more stable (slower turnover)). Conditions: genetic background: wild type.
Work on RVTRLDADYFRI yielded a protein stability index of 0.686. Work on RVTRLDAEYFRI yielded a protein stability index of 0.675. Work on RVTRLDAFYFRI yielded a protein stability index of 0.644. For RVTRLDAIIFRI, the protein stability index was 0.499. RVTRLDAIYDRI was tested, and the protein stability index was 0.696. RVTRLDAIYFGI gave a protein stability index of 0.682. For RVTRLDAIYFRID, the protein stability index was 0.54. RVTRLDAIYGRI gave a protein stability index of 0.69. RVTRLDAIYSRI was tested, and the protein stability index was 0.702. RVTRLDATYFRI gave a protein stability index of 0.661. Work on RVTRLDDIYFRI yielded a protein stability index of 0.689. Sequence RVTRLDTIYFRI has a protein stability index of 0.423. Work on RVTYLDAIYFRI yielded a protein stability index of 0.393. In the case of RYTRLDAIYFRI, the protein stability index was 0.421. In the case of VITLPMCPLLLR, the protein stability index was 0.303. With YITLPMCPLLLR the protein stability index was 0.337. Work on YLYMCSVGCWFR yielded a protein stability index of 0.317. Work on YVTRLDAIYFRI yielded a protein stability index of 0.185.

Each sequence was assayed on Saccharomyces cerevisiae (assay: protein stability index of tFT-peptide fusion in deletion strain of DOA10 (PSI (0-1 scale)); higher = more stable (slower turnover)). Conditions: not given.
Protocol: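 MPS profiling in S. cerevisiae of two library types built from selected 12-aa C-degron peptides (IN1, IN2, LN1, LN3, VN2, R1-R5, W1-W3, Atg1 and Rpa12 C-termini): saturation mutagenesis libraries and C-terminal +1 capping libraries (13 aa). Each peptide is fused to the C-terminus of a sfGFP-mCherry timer, after a GGGS linker. Cells are FACS-sorted into 8 mCherry/sfGFP bins and sequenced. PSI runs from 0 (unstable) to 1 (stable), measured once in wild type and in the das1Δ or doa10Δ background.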
RVTRLDADYFRI was tested, and the protein stability index was 0.722. Work on RVTRLDAEYFRI yielded a protein stability index of 0.693. RVTRLDAFYFRI was tested, and the protein stability index was 0.713. With RVTRLDAIIFRI the protein stability index was 0.703. With RVTRLDAIYDRI the protein stability index was 0.731. In the case of RVTRLDAIYFGI, the protein stability index was 0.721. In the case of RVTRLDAIYFRID, the protein stability index was 0.603. With RVTRLDAIYGRI the protein stability index was 0.724. In the case of RVTRLDAIYSRI, the protein stability index was 0.737. With RVTRLDATYFRI the protein stability index was 0.69. Work on RVTRLDDIYFRI yielded a protein stability index of 0.731. RVTRLDTIYFRI was tested, and the protein stability index was 0.69. RVTYLDAIYFRI showed a protein stability index of 0.563. For RYTRLDAIYFRI, the protein stability index was 0.673. VITLPMCPLLLR showed a protein stability index of 0.615. YITLPMCPLLLR gave a protein stability index of 0.616. For YLYMCSVGCWFR, the protein stability index was 0.586. YVTRLDAIYFRI showed a protein stability index of 0.603.
